Test results published in US20050276757.

Key:
[1] = target: p120 catenin expressed from a transfected plasmid (exogenous p120, HA-tagged in Example 1)
[2] = target: Flag-tagged Abi-1 expressed from pCMV-Flag-Abi1, Q8IZP0
Flag-tagged Abi-1 expressed from pCMV-Flag-Abi1, Q8IZP0, sequence (Q8IZP0 whole entry, looked up): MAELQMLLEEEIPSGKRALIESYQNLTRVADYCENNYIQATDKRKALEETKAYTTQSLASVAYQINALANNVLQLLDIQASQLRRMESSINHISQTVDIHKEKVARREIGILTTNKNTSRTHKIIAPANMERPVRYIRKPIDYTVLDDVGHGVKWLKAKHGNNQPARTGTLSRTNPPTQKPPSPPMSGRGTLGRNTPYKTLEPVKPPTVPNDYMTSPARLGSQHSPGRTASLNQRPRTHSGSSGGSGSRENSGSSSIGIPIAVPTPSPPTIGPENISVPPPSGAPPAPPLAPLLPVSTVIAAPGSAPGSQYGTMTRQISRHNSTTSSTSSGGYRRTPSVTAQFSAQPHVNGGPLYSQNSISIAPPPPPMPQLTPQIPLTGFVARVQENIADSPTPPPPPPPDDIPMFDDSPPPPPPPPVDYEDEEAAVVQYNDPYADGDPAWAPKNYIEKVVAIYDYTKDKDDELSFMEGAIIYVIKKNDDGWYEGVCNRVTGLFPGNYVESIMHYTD

| Protein | in vitro phosphorylation (32P-ATP, autoradiography; gel mobility shift) [1] | in vitro phosphorylation (32P-ATP, autoradiography) (Myelin Basic Protein) | in vitro phosphorylation (32P-ATP, autoradiography) [2] |
| --- | --- | --- | --- |
| purified GST-ZC1 kinase domain (protein) MANDSPAKSLVDIDLSSLRDPAGIFELVEVVGNGTYGQVYKGRHVKTGQLAAIKVMDVTEDEEEEIKLEINMLKKYSHHRNIATYYGAFIKKSPPGHDDQLWLVMEFCGAGSITDLVKNTKGNTLKEDWIAYISREILRGLAHLHIHHVIHRDIKGQNVLLTENAEVKLVDFGVSAQLDRTVGRRNTFIGTPYWMAPEVIACDENPDATYDYRSDLWSCGITAIEMAEGAPPLCDMHPMRALFLIPRNPPPRLKSKKWSKKFFSFIEGCLVKNYMQRPSTEQLLKHPFIRDQPNERQVRIQLKDHIDRTRKKRGEKDETEYEYSGSEE | added purified recombinant ZC1 enzyme induced phosphorylation of p120 | – | – |
| kinase domain of ZC3 fused to GST (protein) MGDPAPARSLDDIDLSALRDPAGIFELVEVVGNGTYGQVYKGRHVKTGQLAAIKVMDVTEDEEEEIKQEINMLKKYSHHRNIATYYGAFIKKSPPGNDDQLWLVMEFCGAGSVTDLVKNTKGNALKEDCIAYICREILRGLAHLHAHKVIHRDIKGQNVLLTENAEVKLVDFGVSAQLDRTVGRRNTFIGTPYWMAPEVIACDENPDATYDYRSDIWSLGITAIEMAEGAPPLCDMHPMRALFLIPRNPPPRLKSKKWSKKFIDFIDTCLIKTYLSRPPTEQLLKFPFIRDQPTERQVRIQLKDHIDRSRKKRGEKEETE | – | MBP is known to be a good in vitro substrate for ZC3 and is indeed strongly phosphorylated | A strongly phosphorylated band corresponding to Abi-1 appears in the sample containing immunoprecipitated Abi-1 and GST-ZC3KD |
